Test results reported in CN113480644A.

Biological target: SARS-CoV-2 S蛋白 (on virus particles) (SARS-CoV-2) (UniProt P0DTC2)
Assay: cell-based or functional assay

REGN10987 (antibody)
中和效率(IC 50), 假病毒中和 (MLV pseudovirus, ACE2-HEK293): 0.162 µg/mL
